B1: anti-DR5 IgM (without J-chain) (antibody, V domains shown)
VH: EVQLVQSGGGVERPGGSLRLSCAASGFTFDDYGMSWVRQAPGKGLEWVSGINWNGGSTGYADSVKGRVTISRDNAKNSLYLQMNSLRAEDTAVYYCAKILGAGRGWYFDLWGKGTTVTVSS
VL: SSELTQDPAVSVALGQTVRITCQGDSLRSYYASWYQQKPGQAPVLVIYGKNNRPSGIPDRFSGSSSGNTASLTITGAQAEDEADYYCNSRDSSGNHVVFGGGTKLTVLG
B2: anti-DR5 IgM+wt J-chain (antibody)
heavy: not shown
light: SSELTQDPAVSVALGQTVRITCQGDSLRSYYASWYQQKPGQAPVLVIYGKNNRPSGIPDRFSGSSSGNTASLTITGAQAEDEADYYCNSRDSSGNHVVFGGGTKLTVLGQPKAAPSVTLFPPSSEELQANKATLVCLISDFYPGAVTVAWKADSSPVKAGVETTTPSKQSNNKYAASSYLSLTPEQWKSHRSYSCQVTHEGSTVEKTVAPTECS
chain: not shown

Target: DR5 (TRAILR2) (Homo sapiens)
Assay: cell-based or functional assay

Binder	cell viability of COLO205 cells after 24 hours (Cell-Titer Glo)
B1	> 1000 fold, compared to the corresponding IgG
B2	> 1000 fold, compared to the corresponding IgG

From patent US11639389B2, “Binding molecules with modified J-chain” (IGM Biosciences, Inc., dated 2023)
